Experimental data reported in patent US20230265151A1, “GIP/GLP1 CO-AGONIST COMPOUNDS” (priority 2020, published 2023).

T1: human glucose-dependent insulinotropic polypeptide (GIP) receptor (human, UniProt P48546 22-466)
T1 sequence (looked up): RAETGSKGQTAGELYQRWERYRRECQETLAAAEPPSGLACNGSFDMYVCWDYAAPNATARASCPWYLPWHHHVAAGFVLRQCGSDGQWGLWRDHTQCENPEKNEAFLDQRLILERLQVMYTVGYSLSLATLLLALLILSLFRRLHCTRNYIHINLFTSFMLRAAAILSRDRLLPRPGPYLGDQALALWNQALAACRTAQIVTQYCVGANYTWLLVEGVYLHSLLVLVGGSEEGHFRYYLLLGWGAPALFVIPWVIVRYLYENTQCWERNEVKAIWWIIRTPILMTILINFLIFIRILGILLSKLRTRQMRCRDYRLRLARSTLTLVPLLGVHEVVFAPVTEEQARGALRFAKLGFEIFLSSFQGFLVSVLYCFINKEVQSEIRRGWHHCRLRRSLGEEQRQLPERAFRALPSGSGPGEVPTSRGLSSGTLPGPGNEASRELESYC

T2: human GIP receptor (human, UniProt P48546 22-466)
T2 sequence (looked up): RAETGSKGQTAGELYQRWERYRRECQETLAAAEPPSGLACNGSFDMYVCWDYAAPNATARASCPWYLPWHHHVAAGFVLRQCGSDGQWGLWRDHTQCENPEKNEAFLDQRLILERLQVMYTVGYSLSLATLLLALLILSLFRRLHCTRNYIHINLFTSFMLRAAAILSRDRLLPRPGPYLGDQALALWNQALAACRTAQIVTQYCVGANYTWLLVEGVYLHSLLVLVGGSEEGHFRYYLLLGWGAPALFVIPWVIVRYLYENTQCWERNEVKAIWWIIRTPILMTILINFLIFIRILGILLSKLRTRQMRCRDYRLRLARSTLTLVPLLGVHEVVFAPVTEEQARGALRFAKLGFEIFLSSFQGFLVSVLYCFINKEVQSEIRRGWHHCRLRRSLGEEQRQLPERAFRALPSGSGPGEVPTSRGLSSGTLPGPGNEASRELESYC

B1: Example 203 (peptide)
peptide: YXEGTXTSDXSIXLDXIAQXEFIKXLIKGGPSSGAPPPS
modifications: Aib2, αMeF(2F)6, 4Pal10, αMeL13, Orn16, Aib20, K24(Z), αMeY25, K28(Z), C-terminal NH2; Z = AEEA2-(γ-Glu)-(4-(4-tert-butylphenyl)butanoyl)
B2: Example 227 (peptide)
peptide: YXEGTXTSDXSIXLDXIAQXKFIXXLIKGGPSSGAPPPS
modifications: Aib2, αMeF(2F)6, 4Pal10, αMeL13, Orn16, Aib20, K21(Z), D-Glu24, αMeY25, K28(Z), C-terminal NH2; Z = AEEA3-(γ-Glu)-CO-(CH2)12-CO2H
B3: Example 222 (peptide)
peptide: YXEGTXTSDXSIXLDXIAQXKFIXXLIKGGPSSGAPPPS
modifications: Aib2, αMeF(2F)6, 4Pal10, αMeL13, Orn16, Aib20, K21(Z), D-Glu24, αMeY25, K28(Z), C-terminal NH2; Z = AEEA2-CO-(CH2)12-CO2H
B4: Example 226 (peptide)
peptide: YXEGTXTSDXSIXLDXIAQXEFIKXLIKGGPSSGAPPPS
modifications: Aib2, αMeF(2F)6, 4Pal10, αMeL13, Orn16, Aib20, K24(Z), αMeY25, K28(Z), C-terminal NH2; Z = AEEA3-(γ-Glu)-CO-(CH2)12-CO2H
B5: Y-Aib-EGT-αMeF(2F)-TSD-4Pal-SI-αMeL-LD-Orn-IAQ-Aib-EFIK((2-[2-(2-Amino-ethoxy)-ethoxy]-acetyl)2-CO-(CH2)12-CO2H)-αMeY-LIK((2-[2-(2-Amino-ethoxy)-ethoxy]-acetyl) … (peptide)
peptide: YXEGTXTSDXSIXLDXIAQXEFIKXLIKGGPSSGAPPPS
modifications: Aib2, αMeF(2F)6, 4Pal10, αMeL13, Orn16, Aib20, αMeY25; acylated K24, K28 (groups as in name); C-terminal amide
B6: Y-Aib-EGT-αMeF(2F)-TSD-4Pal-SI-αMeL-LD-Orn-IAQ-Aib-EFIK((2-[2-(2-Amino-ethoxy)-ethoxy]-acetyl)2-(γ-Glu)-(4-(4-tert-butylphenyl)butanoyl))-αMeY-LIK((2-[2-(2-Amin … (peptide)
peptide: YXEGTXTSDXSIXLDXIAQXEFIKXLIKGGPSSGAPPPS
modifications: Aib2, αMeF(2F)6, 4Pal10, αMeL13, Orn16, Aib20, αMeY25; acylated K24, K28 (groups as in name); C-terminal amide
B7: Y-Aib-EGT-αMeF(2F)-TSD-4Pal-SI-αMeL-LD-Orn-IAQ-Aib-EFIK((2-[2-(2-Amino-ethoxy)-ethoxy]-acetyl)2-(γ-Glu)-CO-(CH2)12-CO2H)-αMeY-LIK((2-[2-(2-Amino-ethoxy)-ethoxy] … (peptide)
peptide: YXEGTXTSDXSIXLDXIAQXEFIKXLIKGGPSSGAPPPS
modifications: Aib2, αMeF(2F)6, 4Pal10, αMeL13, Orn16, Aib20, αMeY25; acylated K24, K28 (groups as in name); C-terminal amide
B8: Example 204 (peptide)
peptide: YXEGTXTSDXSIXLDXIAQXKFIXXLIKGGPSSGAPPPS
modifications: Aib2, αMeF(2F)6, 4Pal10, αMeL13, Orn16, Aib20, K21(Z), D-Glu24, αMeY25, K28(Z), C-terminal NH2; Z = AEEA2-(γ-Glu)-(4-(4-tert-butylphenyl)butanoyl)
B9: Example 205 (peptide)
peptide: YXEGTXTSDXSIXLDXIAQXKFIXXLIEGGPSSGAPPPSK
modifications: Aib2, αMeF(2F)6, 4Pal10, αMeL13, Orn16, Aib20, K21(Z), D-Glu24, αMeY25, K40(Z), C-terminal NH2; Z = AEEA2-(γ-Glu)-(4-(4-tert-butylphenyl)butanoyl)
B10: Example 209 (peptide)
peptide: YXEGTXTSDXSIXLDXKAQXEFIXXLIEGGPSSGAPPPSK
modifications: Aib2, αMeF(2F)6, 4Pal10, αMeL13, Orn16, K17(Z), Aib20, D-Glu24, αMeY25, K40(Z), C-terminal NH2; Z = AEEA-(γ-Glu)-(4-(4-tert-butylphenyl)butanoyl)
B11: Example 225 (peptide)
peptide: YXEGTXTSDXSIXLDXKAQXEFIXXLIEGGPSSGAPPPSK
modifications: Aib2, αMeF(2F)6, 4Pal10, αMeL13, Orn16, K17(Z), Aib20, D-Glu24, αMeY25, K40(Z), C-terminal NH2; Z = AEEA3-(γ-Glu)-CO-(CH2)12-CO2H
B12: Example 228 (peptide)
peptide: YXEGTXTSDXSIXLDXIAQXKFIXXLIEGGPSSGAPPPSK
modifications: Aib2, αMeF(2F)6, 4Pal10, αMeL13, Orn16, Aib20, K21(Z), D-Glu24, αMeY25, K40(Z), C-terminal NH2; Z = AEEA3-(γ-Glu)-CO-(CH2)12-CO2H
B13: Example 221 (peptide)
peptide: YXEGTXTSDXSIXLDXKAQXEFIXXLIEGGPSSGAPPPSK
modifications: Aib2, αMeF(2F)6, 4Pal10, αMeL13, Orn16, K17(Z), Aib20, D-Glu24, αMeY25, K40(Z), C-terminal NH2; Z = AEEA2-CO-(CH2)12-CO2H
B14: Example 200 (peptide)
peptide: YXEGTXTSDYXIXLDXKAQXEFIXXLIEGGKSSGAPPPS
modifications: Aib2, αMeF(2F)6, Dap11, αMeL13, Orn16, K17(Z), Aib20, D-Glu24, αMeY25, K31(Z), C-terminal NH2; Z = AEEA2-(γ-Glu)-CO-(CH2)12-CO2H
B15: Y-Aib-EGT-αMeF(2F)-TSD-4Pal-SI-αMeL-LD-Orn-IAQ-Aib-K((2-[2-(2-Amino-ethoxy)-ethoxy]-acetyl)2-CO-(CH2)12-CO2H)FI-(D-Glu)-αMeY-LIEGGK((2-[2-(2-Amino-ethoxy)-ethox … (peptide)
peptide: YXEGTXTSDXSIXLDXIAQXKFIXXLIEGGKSSGAPPPS
modifications: Aib2, αMeF(2F)6, 4Pal10, αMeL13, Orn16, Aib20, D-Glu24, αMeY25; acylated K21, K31 (groups as in name); C-terminal amide
B16: Example 210 (peptide)
peptide: YXEGTXTSDXSIXLDXKAQXEFIXXLIKGGPSSGAPPPS
modifications: Aib2, αMeF(2F)6, 4Pal10, αMeL13, Orn16, K17(Z), Aib20, D-Glu24, αMeY25, K28(Z), C-terminal NH2; Z = AEEA2-CO-(CH2)12-CO2H

What was measured:
Experiment in all cases: cell-based or functional assay
[1] = biological target: human glucagon receptor (human, UniProt P47871 26-477)
[2] = biological target: human glucagon-like peptide-1 (GLP-1) receptor (human, UniProt P43220 24-463)
[3] = biological target: T1, human glucose-dependent insulinotropic …
[4] = biological target: human glucagon receptor (human, UniProt P47871 26-477); remark: listed apart in the source
[5] = biological target: T2, human GIP receptor

Binder | cAMP EC50 [1] | cAMP EC50 [2] | cAMP EC50 [3] | cAMP EC50 (1.0% HSA) [4] | cAMP EC50 (1.0% HSA) [5] | cAMP Emax [2] | cAMP Emax [3]
B1 | > 9950 nM | 0.535 nM | 0.0721 nM | – | – | – | –
B2 | > 9950 nM | 1.22 nM | 0.0224 nM | – | – | – | –
B3 | > 9950 nM | 0.518 nM | 0.0195 nM | – | – | – | –
B4 | > 9950 nM | 0.611 nM | 0.0232 nM | – | – | – | –
B5 | – | – | – | > 9950 nM | 0.832 nM | – | –
B6 | – | – | – | > 9950 nM | 0.682 nM | – | –
B7 | – | – | – | > 9950 nM | 1.73 nM | – | –
B8 | > 9950 nM | 0.47 nM | 0.0304 nM | – | – | 126% | –
B9 | > 9950 nM | 0.287 nM | 0.0264 nM | – | – | – | –
B10 | > 9950 nM | 0.235 nM | 0.0133 nM | – | – | – | –
B11 | > 9950 nM | 9.62 nM | 0.0466 nM | – | – | – | –
B12 | > 9950 nM | 1.34 nM | 0.0232 nM | – | – | 91.1% | –
B13 | > 9950 nM | 1.83 nM | 0.0279 nM | – | – | 83% | –
B14 | > 9950 nM | 0.834 nM | 0.0503 nM | – | – | 93.7% | 96.3%
B15 | – | – | – | > 9950 nM | 0.771 nM | – | –
B16 | > 9950 nM | 0.57 nM | 0.02 nM | – | – | – | –
